Key:
IL-11R-Fc [1] = target: T1, IL-11R-Fc; assay: competition ELISA on IL-11R-Fc; reference murine W147A IL-11
T1 sequence (Q64385 whole entry, species assumed, looked up): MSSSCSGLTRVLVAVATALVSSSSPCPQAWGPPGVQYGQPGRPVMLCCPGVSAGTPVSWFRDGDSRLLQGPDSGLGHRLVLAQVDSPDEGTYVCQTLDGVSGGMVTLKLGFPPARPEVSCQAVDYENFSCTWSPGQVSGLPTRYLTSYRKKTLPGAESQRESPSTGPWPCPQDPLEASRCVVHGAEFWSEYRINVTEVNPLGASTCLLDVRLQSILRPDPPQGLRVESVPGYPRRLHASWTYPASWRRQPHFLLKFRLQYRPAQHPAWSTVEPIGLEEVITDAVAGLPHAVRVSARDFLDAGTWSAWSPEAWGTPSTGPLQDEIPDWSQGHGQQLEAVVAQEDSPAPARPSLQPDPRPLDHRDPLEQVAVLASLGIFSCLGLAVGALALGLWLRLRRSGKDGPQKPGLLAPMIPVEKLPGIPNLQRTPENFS

[2] = target: T2, murine IL-11R on Ba/F3 cells stably transfected with murine IL-11R/gp130 (murine, UniProt Q64385 24-432); assay: cell-based or functional assay
T2 sequence (looked up): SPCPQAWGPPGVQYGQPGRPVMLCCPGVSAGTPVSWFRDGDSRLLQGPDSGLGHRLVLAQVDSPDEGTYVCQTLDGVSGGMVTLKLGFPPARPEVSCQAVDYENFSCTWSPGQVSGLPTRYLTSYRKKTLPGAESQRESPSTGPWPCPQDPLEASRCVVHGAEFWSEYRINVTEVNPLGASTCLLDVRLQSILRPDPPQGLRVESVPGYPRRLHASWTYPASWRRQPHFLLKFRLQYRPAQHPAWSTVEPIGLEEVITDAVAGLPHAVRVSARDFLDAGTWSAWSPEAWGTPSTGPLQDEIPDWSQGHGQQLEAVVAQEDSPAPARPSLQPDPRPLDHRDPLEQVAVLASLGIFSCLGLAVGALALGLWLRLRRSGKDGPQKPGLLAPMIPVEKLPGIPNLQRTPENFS

IL-11R-Fc [3] = target: T1, IL-11R-Fc; assay: IL-11R binding ELISA; reference non-PEGylated mutein

IL-11 mutein of SEQ ID NO: 1 (murine IL-11 with AMSAG at positions 58-62 replaced by PAIDY and W147A), N-terminal His-tagged (from UniProt P47873 22-199) (ligand)
fold higher binding affinity than murine W147A IL-11 (IL-11R-Fc [1]): 20 fold

B1: PEGylated IL-11 mutein (SEQ ID NO: 3 with a single 40 kDa PEG on the Cys at position 147) (ligand)
chain: VSSDPRADLDSAVLLTRSLLADTRQLAAQMRDKFPADGDHSLDSLPTLPAIDYTLGSLQLPGVLTRLRVDLMSYLRHVQWLRRAGGPSLKTLEPELGALQARLERLLRRLQLLMSRLALPQAAPDQPVIPLGPPASACGSIRAAHAILGGLHLTLDWAVRGLLLLKTRL
modifications: mPEG2-maleimide (single 40 kDa PEG moiety) on the Cys residue introduced at position 147 (mature murine IL-11 numbering)
fold reduction against non-PEGylated mutein in antagonism of IL-11-induced Ba/F3 cell proliferation [2]: ~10 fold | fold reduction of IL-11R binding affinity relative to non-PEGylated mutein (IL-11R-Fc [3]): 5 fold

Reference: patent publication US20100183544A1 (CSL, published 2010)
